In patent US20180362632A1 (published 2018):

Target: recombinant human GM-CSF protein (human, UniProt P04141 18-144)
Assay: ELISA

Chain of recombinant human GM-CSF protein (P04141 18-144): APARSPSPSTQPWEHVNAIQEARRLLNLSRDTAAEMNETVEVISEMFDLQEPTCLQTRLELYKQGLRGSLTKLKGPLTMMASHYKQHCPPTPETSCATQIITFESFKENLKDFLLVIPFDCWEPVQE

Row | Binder | EC50 [nM]
1 | Hu23F4-18 (antibody, V domains shown) VH: EVQLVQSGAEVKKPGATVKISCKVSDYTLTSHYLHWVQQAPGKGLEWIGWIFPGDDKTKYNEKFKGRATLTSDTSTDTAYMELSSLRSEDTAVYYCARGTKYLNWNFDVWGQGTTVTVSS VL: DIQLTQSPSFLSASVGDRVTITCKANQNVGTTLAWYQQKPGKAPKALIYSASYRYSGVPSRFSGSGSGTEFTLTISSLQPEDFATYYCHQYTTYPLTFGGGTKVEIK | 0.0585
2 | Hu23F4-8 (antibody, V domains shown) VH: EVQLVQSGAEVKKPGATVKISCKVSGYTFTSHYLHWVQQAPGKGLEWMGWIFPGDDKTKYNEKFKGRVTITSDTSTDTAYMELSSLRSEDTAVYYCARGTKYLNWNFDVWGQGTTVTVSS VL: DIQLTQSPSFLSASVGDRVTITCKANQNVGTTLAWYQQKPGKSPKALIYSASYRYSGVPDRFSGSGSGTDFTLTISSLQPEDFATYFCHQYTTYPLTFGGGTKVEIK | 0.0484
3 | Hu23F4-10 (antibody, V domains shown) VH: EVQLVQSGAEVKKPGATVKISCKVSGYTFTSHYLHWVQQAPGKGLEWMGWIFPGDDKTKYNEKFKGRATLTSDTSTDTAYMELSSLRSEDTAVYYCARGTKYLNWNFDVWGQGTTVTVSS VL: DIQLTQSPSFLSASVGDRVTITCKANQNVGTTLAWYQQKPGKAPKALIYSASYRYSGVPSRFSGSGSGTEFTLTISSLQPEDFATYYCHQYTTYPLTFGGGTKVEIK | 0.116
4 | Hu23F4-11 (antibody, V domains shown) VH: EVQLVQSGAEVKKPGATVKISCKVSGYTFTSHYLHWVQQAPGKGLEWMGWIFPGDDKTKYNEKFKGRATLTSDTSTDTAYMELSSLRSEDTAVYYCARGTKYLNWNFDVWGQGTTVTVSS VL: DIQLTQSPSFLSASVGDRVTITCKANQNVGTTLAWYQQKPGKAPKALIYSASYRYSGVPDRFSGSGSGTDFTLTISSLQPEDFATYYCHQYTTYPLTFGGGTKVEIK | 0.0871
5 | Hu23F4-15 (antibody, V domains shown) VH: EVQLVQSGAEVKKPGATVKISCKVSGYTFTSHYLHWVQQAPGKGLEWIGWIFPGDDKTKYNEKFKGRATLTSDTSTDTAYMELSSLRSEDTAVYYCARGTKYLNWNFDVWGQGTTVTVSS VL: DIQLTQSPSFLSASVGDRVTITCKANQNVGTTLAWYQQKPGKAPKALIYSASYRYSGVPDRFSGSGSGTDFTLTISSLQPEDFATYYCHQYTTYPLTFGGGTKVEIK | 0.171
6 | Hu23F4-13 (antibody, V domains shown) VH: EVQLVQSGAEVKKPGATVKISCKVSGYTFTSHYLHWVQQAPGKGLEWIGWIFPGDDKTKYNEKFKGRATLTSDTSTDTAYMELSSLRSEDTAVYYCARGTKYLNWNFDVWGQGTTVTVSS VL: DIQLTQSPSFLSASVGDRVTITCKANQNVGTTLAWYQQKPGKAPKLLIYSASYRYSGVPSRFSGSGSGTEFTLTISSLQPEDFATYYCHQYTTYPLTFGGGTKVEIK | 0.0852
7 | Hu23F4-2 (antibody, V domains shown) VH: EVQLVQSGAEVKKPGATVKISCKVSGYTFTSHYLHWVQQAPGKGLEWMGWIFPGDDKTKYNEKFKGRVTITADTSTDTAYMELSSLRSEDTAVYYCARGTKYLNWNFDVWGQGTTVTVSS VL: DIQLTQSPSFLSASVGDRVTITCKANQNVGTTLAWYQQKPGKAPKALIYSASYRYSGVPSRFSGSGSGTEFTLTISSLQPEDFATYYCHQYTTYPLTFGGGTKVEIK | 0.158
8 | Hu23F4-5 (antibody, V domains shown) VH: EVQLVQSGAEVKKPGATVKISCKVSGYTFTSHYLHWVQQAPGKGLEWMGWIFPGDDKTKYNEKFKGRVTITSDTSTDTAYMELSSLRSEDTAVYYCARGTKYLNWNFDVWGQGTTVTVSS VL: DIQLTQSPSFLSASVGDRVTITCKANQNVGTTLAWYQQKPGKAPKLLIYSASYRYSGVPSRFSGSGSGTEFTLTISSLQPEDFATYYCHQYTTYPLTFGGGTKVEIK | 0.0585
9 | Hu23F4-19 (antibody, V domains shown) VH: EVQLVQSGAEVKKPGATVKISCKVSDYTLTSHYLHWVQQAPGKGLEWIGWIFPGDDKTKYNEKFKGRATLTSDTSTDTAYMELSSLRSEDTAVYYCARGTKYLNWNFDVWGQGTTVTVSS VL: DIQLTQSPSFLSASVGDRVTITCKANQNVGTTLAWYQQKPGKAPKALIYSASYRYSGVPDRFSGSGSGTDFTLTISSLQPEDFATYYCHQYTTYPLTFGGGTKVEIK | 0.0787
10 | Hu23F4-21 (antibody, V domains shown) VH: EVQLVQSGAEVKKPGASVKVSCKASGYTFTSHYLHWVRQAPGQGLEWMGWIFPGDDKTKYNEKFKGRVTMTRDTSISTAYMELSRLRSDDTAVYYCARGTKYLNWNFDVWGQGTTVTVSS VL: DIQLTQSPSFLSASVGDRVTITCKANQNVGTTLAWYQQKPGKAPKALIYSASYRYSGVPSRFSGSGSGTEFTLTISSLQPEDFATYYCHQYTTYPLTFGGGTKVEIK | 0.151
11 | Hu23F4-12 (antibody, V domains shown) VH: EVQLVQSGAEVKKPGATVKISCKVSGYTFTSHYLHWVQQAPGKGLEWMGWIFPGDDKTKYNEKFKGRATLTSDTSTDTAYMELSSLRSEDTAVYYCARGTKYLNWNFDVWGQGTTVTVSS VL: DIQLTQSPSFLSASVGDRVTITCKANQNVGTTLAWYQQKPGKSPKALIYSASYRYSGVPDRFSGSGSGTDFTLTISSLQPEDFATYFCHQYTTYPLTFGGGTKVEIK | 0.226

Now from value to binder:

Row | EC50 [nM] | Binder
12 | 0.0623 | Hu23F4-4 (antibody, V domains shown) VH: EVQLVQSGAEVKKPGATVKISCKVSGYTFTSHYLHWVQQAPGKGLEWMGWIFPGDDKTKYNEKFKGRVTITADTSTDTAYMELSSLRSEDTAVYYCARGTKYLNWNFDVWGQGTTVTVSS VL: DIQLTQSPSFLSASVGDRVTITCKANQNVGTTLAWYQQKPGKSPKALIYSASYRYSGVPDRFSGSGSGTDFTLTISSLQPEDFATYFCHQYTTYPLTFGGGTKVEIK
13 | 0.11 | Hu23F4-1 (antibody, V domains shown) VH: EVQLVQSGAEVKKPGATVKISCKVSGYTFTSHYLHWVQQAPGKGLEWMGWIFPGDDKTKYNEKFKGRVTITADTSTDTAYMELSSLRSEDTAVYYCARGTKYLNWNFDVWGQGTTVTVSS VL: DIQLTQSPSFLSASVGDRVTITCKANQNVGTTLAWYQQKPGKAPKLLIYSASYRYSGVPSRFSGSGSGTEFTLTISSLQPEDFATYYCHQYTTYPLTFGGGTKVEIK
14 | 0.164 | Hu23F4-7 (antibody, V domains shown) VH: EVQLVQSGAEVKKPGATVKISCKVSGYTFTSHYLHWVQQAPGKGLEWMGWIFPGDDKTKYNEKFKGRVTITSDTSTDTAYMELSSLRSEDTAVYYCARGTKYLNWNFDVWGQGTTVTVSS VL: DIQLTQSPSFLSASVGDRVTITCKANQNVGTTLAWYQQKPGKAPKALIYSASYRYSGVPDRFSGSGSGTDFTLTISSLQPEDFATYYCHQYTTYPLTFGGGTKVEIK
15 | 0.0887 | Hu23F4-3 (antibody, V domains shown) VH: EVQLVQSGAEVKKPGATVKISCKVSGYTFTSHYLHWVQQAPGKGLEWMGWIFPGDDKTKYNEKFKGRVTITADTSTDTAYMELSSLRSEDTAVYYCARGTKYLNWNFDVWGQGTTVTVSS VL: DIQLTQSPSFLSASVGDRVTITCKANQNVGTTLAWYQQKPGKAPKALIYSASYRYSGVPDRFSGSGSGTDFTLTISSLQPEDFATYYCHQYTTYPLTFGGGTKVEIK
16 | 0.059 | Hu23F4-22 (antibody, V domains shown) VH: EVQLVQSGAEVKKPGASVKVSCKASGYTFTSHYLHWVRQAPGQGLEWMGWIFPGDDKTKYNEKFKGRVTMTRDTSISTAYMELSRLRSDDTAVYYCARGTKYLNWNFDVWGQGTTVTVSS VL: DIQLTQSPSFLSASVGDRVTITCKANQNVGTTLAWYQQKPGKAPKALIYSASYRYSGVPDRFSGSGSGTDFTLTISSLQPEDFATYYCHQYTTYPLTFGGGTKVEIK
17 | 0.0516 | Hu23F4-9 (antibody, V domains shown) VH: EVQLVQSGAEVKKPGATVKISCKVSGYTFTSHYLHWVQQAPGKGLEWMGWIFPGDDKTKYNEKFKGRATLTSDTSTDTAYMELSSLRSEDTAVYYCARGTKYLNWNFDVWGQGTTVTVSS VL: DIQLTQSPSFLSASVGDRVTITCKANQNVGTTLAWYQQKPGKAPKLLIYSASYRYSGVPSRFSGSGSGTEFTLTISSLQPEDFATYYCHQYTTYPLTFGGGTKVEIK
18 | 0.0858 | Hu23F4-16 (antibody, V domains shown) VH: EVQLVQSGAEVKKPGATVKISCKVSGYTFTSHYLHWVQQAPGKGLEWIGWIFPGDDKTKYNEKFKGRATLTSDTSTDTAYMELSSLRSEDTAVYYCARGTKYLNWNFDVWGQGTTVTVSS VL: DIQLTQSPSFLSASVGDRVTITCKANQNVGTTLAWYQQKPGKSPKALIYSASYRYSGVPDRFSGSGSGTDFTLTISSLQPEDFATYFCHQYTTYPLTFGGGTKVEIK
19 | 0.0993 | Hu23F4-20 (antibody, V domains shown) VH: EVQLVQSGAEVKKPGASVKVSCKASGYTFTSHYLHWVRQAPGQGLEWMGWIFPGDDKTKYNEKFKGRVTMTRDTSISTAYMELSRLRSDDTAVYYCARGTKYLNWNFDVWGQGTTVTVSS VL: DIQLTQSPSFLSASVGDRVTITCKANQNVGTTLAWYQQKPGKAPKLLIYSASYRYSGVPSRFSGSGSGTEFTLTISSLQPEDFATYYCHQYTTYPLTFGGGTKVEIK
20 | 0.0508 | Hu23F4-14 (antibody, V domains shown) VH: EVQLVQSGAEVKKPGATVKISCKVSGYTFTSHYLHWVQQAPGKGLEWIGWIFPGDDKTKYNEKFKGRATLTSDTSTDTAYMELSSLRSEDTAVYYCARGTKYLNWNFDVWGQGTTVTVSS VL: DIQLTQSPSFLSASVGDRVTITCKANQNVGTTLAWYQQKPGKAPKALIYSASYRYSGVPSRFSGSGSGTEFTLTISSLQPEDFATYYCHQYTTYPLTFGGGTKVEIK
21 | 0.102 | Hu23F4-17 (antibody, V domains shown) VH: EVQLVQSGAEVKKPGATVKISCKVSDYTLTSHYLHWVQQAPGKGLEWIGWIFPGDDKTKYNEKFKGRATLTSDTSTDTAYMELSSLRSEDTAVYYCARGTKYLNWNFDVWGQGTTVTVSS VL: DIQLTQSPSFLSASVGDRVTITCKANQNVGTTLAWYQQKPGKAPKLLIYSASYRYSGVPSRFSGSGSGTEFTLTISSLQPEDFATYYCHQYTTYPLTFGGGTKVEIK
22 | 0.0196 | Hu23F4-6 (antibody, V domains shown) VH: EVQLVQSGAEVKKPGATVKISCKVSGYTFTSHYLHWVQQAPGKGLEWMGWIFPGDDKTKYNEKFKGRVTITSDTSTDTAYMELSSLRSEDTAVYYCARGTKYLNWNFDVWGQGTTVTVSS VL: DIQLTQSPSFLSASVGDRVTITCKANQNVGTTLAWYQQKPGKAPKALIYSASYRYSGVPSRFSGSGSGTEFTLTISSLQPEDFATYYCHQYTTYPLTFGGGTKVEIK
